Laboratory results reported in the supplement of paper PMC9170038.

Tested on: MS2 coat protein
Test: apparent KD of MS2 coat protein; designed switch direction (-1 OFF switch, 1 ON switch): 1; higher = weaker reporter binding
How it was run: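 Each step of the titration lasted 0.8–1.5 h at the lowest concentration and 10–20 min at the highest. The protein, SNAP-549-labelled MS2 coat protein, went from 0.7 or 1.5 nM doubling to 3 µM over RNA switches transcribed on Illumina chips by stalled E. coli RNA polymerase. Normalised cluster fluorescence was curve-fitted, and the per-design median over clusters is given as apparent KD.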

[1] = Eterna round: R95, input ligand: FMN 200 uM
[2] = Eterna round: R95, input ligand: microRNA oligo, concentration not stated
[3] = Eterna round: R95, input ligand: none
[4] = input ligand: microRNA oligo, concentration not stated

| Sequence | apparent KD of MS2 coat protein [1] [nM] | apparent KD of MS2 coat protein [2] [nM] | apparent KD of MS2 coat protein [3] [nM] | apparent KD of MS2 coat protein (input ligand: FMN 200 uM) [nM] | apparent KD of MS2 coat protein [4] [nM] | apparent KD of MS2 coat protein (input ligand: none) [nM] |
| --- | --- | --- | --- | --- | --- | --- |
| AUAAAACAUGAGGAUCACCCAUGUCAACAAAGUCGAGGAUAUGGGCAUAUAAAAUAAGAACCAGAAGGCGAAUAAU [salish99_ss1_r3_026] (puzzle: Same State 1) | 32.2 | 265 | 230 | – | – | – |
| UUGAAGAACAUAGGAUAUUGAAUACAUAUGUUUAACAUGAGGAUCACCCAUGUGGGUUGCGGUAUCGAGAAGGAUGAAUAAAAG [Mat - Same State NG 2 - JL mod - D15] (Eterna round: R96, puzzle: Same State NG 2) | – | – | – | 328 | 259 | 256 |
| GGUAUCGACACAGGAUAUGCUAUCCUUUGGGUAGCAGAAGGGUGGACAUGAGGAUCACCCAUGUGGGUGCCAGGGCGUGAGCCC [JL SSNG1 1.84] (Eterna round: R96, puzzle: Same State NG 1) | – | – | – | 234 | 21.1 | 1040 |
| AAAGAAAAACUAGAGGAUAUCCGAGUGGUAACAUGAGGAUCACCCAUGUGAUGAAAGGAACAUGAGGAGAAGGCUAGAAGAAAAA [JL Nando mod 8] (Eterna round: R96, puzzle: Same State 2) | – | – | – | 20.6 | 47.6 | 56.5 |
| GUGCGGGUGCCACAGGAUAUACGUGGAUCGACAUGAGGAUCACCCAUGUAUAUCCUAAUAAUUGCGUAGAAGGGUGGUCAGCCGU [Enbebiqu] (Eterna round: R96, puzzle: Same State 2) | – | – | – | 144 | 196 | – |
| GGCGCGGUCUCGCAGGAUAUCCACAAUCCUACAUGAGGAUCACCCAUGUCGCUGCAGGAUAUUAGGGAGAAGGGUGAUGCCGCGG [Bereri] (puzzle: Same State 2) | 20 | 30.4 | 41.6 | – | – | – |
| GCUACCAAUGAAGCCAACAUGAGGAUCACCCAUGUAUGUUGGUAGGAUAUCGUUUGCAAAGCAAACGAGAAGGGCUAAGGUAGC [Mat - Same State NG 3 - JL Mod - D75] (Eterna round: R96, puzzle: Same State NG 3) | – | – | – | 62.8 | 36.8 | 51 |
| CCGCGGGUAUCACAGGAUAUACUCAUAAUUACAUGAGGAUCACCCAUGUGACGGAAUUCCGGUGCGUAGAAGGGUGAUGGACCGC [Onquorbe] (puzzle: Same State 2) | 19.3 | 52.1 | 65.7 | – | – | – |
| GCCAACACAUGAGGAUAUGGCACCUUAUUGGUGCCAGAAGGCAUGUGAAUUCACAUGAGGAUCACCCAUGUAUUAUAGUUGGCA [Fiskers NG1ss - 19] (Eterna round: R96, puzzle: Same State NG 1) | – | – | – | 18.8 | 75.1 | 121 |
| GAAAGCAUGGGAGGAUAUAGCCUCUAUGGAGGGCUAGAAGGCCCUGGCCACAUGAGGAUCACCCAUGUGAAAUAAAUAGAAGAA [MOD Raarceza] (Eterna round: R96, puzzle: Same State NG 1) | – | – | – | 453 | 2.74 | 188 |
| AACAAUCUAUCUGAGGAUAUCUUGAAAUAAACAUGAGGAUCACCCAUGUGCAGGAAAACUGCAUAUGAGAAGGCAGAUAGAUUGA [salish99_ss2_r3_028] (puzzle: Same State 2) | 14.5 | 124 | 148 | – | – | – |
| UUAGCACAUGAGGAUCACCCAUGUACUAUACUCAUAGGAUAUACAAAGUCUUAAGACGUGGUAGAAGGGUGAGGAA [Zaateddi] (puzzle: Same State 1) | 101 | 106 | 128 | – | – | – |
| AUCAAUCUAUCUCAGGAUAUCAUGUCAAAGACAUGAGGAUCACCCAUGUACCAGGAAACUGGUUAUGAGAAGGGAGAUAGAUUGA [Mat - Same State 2 - Mod - D30] (puzzle: Same State 2) | 56.2 | 158 | 53.2 | – | – | – |
| AGUCCAGCCUGAGCUGGACAAAAGCAUGUACAUGAGGAUCACCCAUGUUCAUGUACAAGCUUUUUGCAAGUCAAAAU [Mat - hsa-mir-208a - Mod of JL - 80] (puzzle: Sensor for hsa-mir-208a) | 723 | 13.8 | 641 | – | – | – |
| CUCCCAGCGGGAGGAUAUGGUGCCUUGUUGGUGCUAGAAGGUCCAACAUGAGGAUCACCCAUGUGGGAGUGGUUGAGAGACCUC [SS NG10LRO12] (Eterna round: R96, puzzle: Same State NG 1) | – | – | – | 218 | 166 | 278 |
| AGGAUAACACAUGAGGAUCACCCAUGUAUUAUUAUUACAAGCUUUUUGCUCGUUUUUAAUAAUACAUGUGUUAUUUU [Default title] (puzzle: Sensor for hsa-mir-208a version 2) | 88.2 | 88.7 | 133 | – | – | – |
| GUGGUCAGACAUGAGGAUCACCCAUGUGGAAUAAAUAACGGUGAGGAUAUGGAAUAUAGGAUAUACUAGAAGGCAUGAUUGGUG (Eterna round: R96, puzzle: Same State NG 3) | – | – | – | 91.5 | 76.9 | 92.3 |
| AAUUAAGAUCGAGGAUAUCACGUCGUUUAGACGUGAGAAGGCGAUCAUAACAUGAGGAUCACCCAUGUAUUACAUGAAUUAAUU [SSNG1/4-B3] (Eterna round: R96, puzzle: Same State NG 1) | – | – | – | 20.6 | 26.6 | 29.1 |
| AAGAAACAUGAGGAUCACCCAUGUAAUAAUAUGGGAGGAUAUACAAGGACAAUAGUCAAGGUAGAAGGCCUAAGAA [Mat - Same State 1 - Meechl mod - D142] (Eterna round: R96, puzzle: Same State 1) | – | – | – | – | 123 | – |
| GCUCGGCUGAUGGCCUACAUGAGGAUCACCCAUGUGACUGGGCAGGAUAUCUAGAUGCAGGAUGUAGAGAAGGGCCUGCCGAGC [SameState NG3 #42] (Eterna round: R96, puzzle: Same State NG 3) | – | – | – | 704 | 224 | 458 |
| AGUCCAGCCAAAGCUGGACAAAAGCAUGUACAUGAGGAUCACCCAUGUUCAUGUACAAGCUUUUUGCAAGUCAAAAG [Mat - hsa-mir-208a - Mod of JL - 77] (puzzle: Sensor for hsa-mir-208a) | 332 | 29.5 | 498 | – | – | – |
| GGAAUAUGAUGUUACAUGAGGAUCACCCAUGUAGUAAUAACUAAGGAUAUCUGUUAUGAUUAAUAAGAGAAGGUAGGAUCAUAA [AK SSNG3-V2-9] (Eterna round: R96, puzzle: Same State NG 3) | – | – | – | 23.6 | 19 | 25.8 |
| UGGCUGGUGCUAGGAUAUGCAUGAGGCCUCCUCGUAGAAGGAGCACGACAUGAGGAUCACCCAUGUGGCCGUCCGUGGACGGCU [salish99_SSNG1_r04_014] (Eterna round: R96, puzzle: Same State NG 1) | – | – | – | 45.4 | 44.9 | 56.1 |
